The text below walks through data of PMC9027224 (Diagnostics, 2022).

Like-named read-outs stand apart in the source and are kept apart here.

On the set-up of series [1]: species or system human. To be noted: in vivo. Here is the method:
Dosimetry was based on the decay-uncorrected image sets from the 3 time points (10 patients) supplemented with sampled urine data (7 patients). For each patient, organ, and time point, tissue activity concentration (kBq/mL) was determined in VOIs defined on CT. Activity (per patient, organ and time) was estimated by multiplying concentration values by organ masses of the OLINDA adult phantom, normalized per injected MBq and scaled for patient weight. Time integrated activity coefficients (TIAC, unit h) for each patient and organ was determined by numerical integration and analytical extrapolation to infinity assuming only physical decay. The resulting organ TIACs were averaged over patients. All data were entered into OLINDA/EXM 2.0 software (Vanderbilt University, TN, USA and HERMES Medical Solutions, Stockholm, Sweden).
Urine was collected immediately after each scan in pre-weighted plastic bottles. The cumulated decay-corrected activity (MBq) of the excreted urine was plotted over time for all 7 subjects and data fitted to a one-phase exponential association. […] A detailed description of the dosimetry is available in Supplementary Material (Section S2).
testine, spleen, stomach contents, testes, thyroid, and upper large intestine. For each pa-
tient, organ, and time-point, tissue activity concentration (kBq/mL) was calculated as the
average of the mean values from 3 VOIs. Total activity (per patient, organ and time) was
estimated by multiplying these average values by organ masses of the OLINDA male
adult phantom. Activity values were normalized to 1MBq by dividing with injected
activity and scaled with the ratio of actual patient weight to the weight of the standard
model (73 kg). As a surrogate for red marrow activity, VOIs were drawn encompassing
large portions of the L3–L5 vertebrae. Time integrated activity coefficients (TIAC, for-
merly known as residence time; unit h) for each patient and organ was determined by nu-
merical integration up to the third (last) data point and analytical extrapolation to infinity
assuming only physical decay. Piecewise linearity was assumed from time zero up to the
second data point and a mono-exponential was used between the second and third data
points. The resulting organ TIACs were averaged over patients. All data were entered into
OLINDA/EXM 2.0 software (Vanderbilt Universi ty, and HERMES Medical Solutions).
Urine was collected immediately after each scan in pre-weighted plastic bottles and
for each individual voiding the weight (volume) was measured and a 500 μL sample was
drawn for activity measurement in a calibrated gamma well counter (Cobra II TM,
Gamma Counting Systems; PACKARD, Meriden, CT, USA).The cumulated decay cor-
rected activity (in MBq) of the excreted urine, normalized to 1 MBq of injection, was plot-
ted over time (in Excel) for all 7 subjects and data fitted to a one phase exponential asso-
ciation (exponential growing towards a limit). The resulting limit and half-life were used
as input to the bladder voiding model of OLINDA, yielding the TIAC for bladder con-
tents. In concordance with the actual setup a bladder voiding interval of 1 hour was se-
The value for “remainder tissue” was calculated as the total area (in h) for 1 MBq
minus the sum of the organ-specific values (except bladder) minus the value passed to
urine (based on the fitted model parameters). The fraction of the latter that is attributed to
the bladder depends on the voiding interval.
The output from OLINDA consists of absorbed doses for organs and effective dose
with weight factors according to ICRP 103 [3]. […]
3. The 2007 Recommendations of the International Commission on Radiological Protection. ICRP publication 103. Ann ICRP

Details of series [2]: species or system human. Particulars: in vivo, iv. An excerpt:
Two peripheral intravenous catheters were placed, one for tracer injection and one in the contralateral arm for withdrawal of blood samples and administration of i.v. contrast agent. Electrocardiogram and vital signs as well as safety blood samples were monitored before and following [^68Ga]Ga-NODAGA-E[c(RGDyK)]2 injection. […] Furthermore, urine was collected for pharmacokinetic analysis and dosimetry in a subset of patients (Figure 1). The activity concentration of the urine and plasma was counted on Cobra II TM Gamma Counter (Packard, CT, USA). Blood and urine samples were analyzed on a Dionex UltiMate 3000 column-switching high-performance liquid chromatography (HPLC) system with a Posi-RAM Module 4 (ThermoFisher Scientific, Waltham, MA, USA). The full blood samples were centrifuged (3500 rpm, 4 min) and the supernatant plasma was collected and filtered through a […] syringe filter prior to the HPLC analysis. The HPLC analysis consisted of an extraction step and an analytical step, as previously described. During the extraction step, the plasma samples were passed through a shim-pack XR-ODS (30 × 4.6 mm, 2.2 μm). The valves were switched, and the sample was then analyzed on an Onyx monolithic column (C18, 50 × 4.6 mm). […]

The conditions of series [3]: human, in vivo. An excerpt: Two peripheral intravenous catheters were placed, one for tracer injection and one in the contralateral arm for withdrawal of blood samples and administration of i.v. contrast agent. Electrocardiogram and vital signs as well as safety blood samples were monitored before and following [^68Ga]Ga-NODAGA-E[c(RGDyK)]2 injection. […] Furthermore, urine was collected for pharmacokinetic analysis and dosimetry in a subset of patients (Figure 1).

The conditions of series [4]: in vivo; cited from earlier work. An excerpt: (§1) A secondary objective of our study was to assess [^68Ga]Ga-NODAGA-E[c(RGDyK)]2 uptake in tumors.
The subject of series [5] is head and neck squamous cell carcinoma. Particulars: 10 patients with head and neck squamous cell carcinoma; cited from earlier work.
Source text: as §1

In another series the target is integrin subtype αvβ3. Particulars: in vitro; unlabelled NODAGA-E[c(RGDyK)]2; ref Bentsen et al., unpublished data; read-out: affinity (KD); cited from earlier work. An excerpt:
A large number of PET tracers with the RGD motif have been developed and tested preclinically. However, only a few have reached testing in clinical trials, and none have yet been employed for routine clinical use. The clinical translation of first-generation integrin-targeting PET tracers with ^18F, e.g., ^18F-Galacto-RGD, was hampered by complex radiochemistry. Thus, several approaches to optimize the production and tracer stability as well as tumor-binding properties have been investigated. Addressing the need for assessing integrin αvβ3, our group evaluated a number of PET tracers uti ...

As for `N=C(N)NCCC[C@@H]1NC(=O)[C@H](CCCCNC(=O)CC[C@H](NC(=O)CCC(C(=O)O)N2CCN(CC(=O)O)CCN(CC(=O)O)CC2)C(=O)NCCCC[C@@H]2NC(=O)[C@@H](Cc3ccc(O)cc3)NC(=O)[C@H](CC(=O)O)NC(=O)CNC(=O)[C@H](CCCNC(=N)N)NC2=O)NC(=O)[C@@H](Cc2ccc(O)cc2)NC(=O)[C@H](CC(=O)O)NC(=O)CNC1=O` (stereo partly drawn) [[^68Ga]Ga-NODAGA-E[c(RGDyK)]2, metal not drawn], in series [1], the “Mean Absorbed Dose, Adrenals” value stood at 0.0245 mGy/MBq; the “Mean Absorbed Dose, Brain” value is reported as 0.00252 mGy/MBq; the “Mean Absorbed Dose, Breasts” value worked out at 0.0105 mGy/MBq; the “Mean Absorbed Dose, Esophagus” value amounted to 0.0112 mGy/MBq. In series [1], the “Mean Absorbed Dose, Eyes” value was determined as 0.00929 mGy/MBq; the “Mean Absorbed Dose, Gallbladder Wall” value was determined as 0.0143 mGy/MBq; the “Mean Absorbed Dose, Heart Wall” value stood at 0.0146 mGy/MBq; the “Mean Absorbed Dose, Kidneys” value came out at 0.0627 mGy/MBq. In addition, in series [1], the “Mean Absorbed Dose, Left Colon” value came out at 0.0136 mGy/MBq; the “Mean Absorbed Dose, Liver” value was determined as 0.0279 mGy/MBq; the “Mean Absorbed Dose, Lungs” value was found to be 0.00792 mGy/MBq; the “Mean Absorbed Dose, Osteogenic Cells” value was found to be 0.0136 mGy/MBq. In series [1], the “Mean Absorbed Dose, Ovaries” value worked out at 0.0154 mGy/MBq; the “Mean Absorbed Dose, Pancreas” value stood at 0.0144 mGy/MBq; the “Mean Absorbed Dose, Prostate” value was determined as 0.0133 mGy/MBq; the “Mean Absorbed Dose, Rectum” value is listed as 0.0151 mGy/MBq. In series [1], the “Mean Absorbed Dose, Red Marrow” value turned out to be 0.015 mGy/MBq; the “Mean Absorbed Dose, Right Colon” value turned out to be 0.0131 mGy/MBq; the “Mean Absorbed Dose, Salivary Glands” value is 0.00996 mGy/MBq; the “Mean Absorbed Dose, Small Intestine” value stood at 0.0603 mGy/MBq. In addition, in series [1], the “Mean Absorbed Dose, Spleen” value turned out to be 0.0504 mGy/MBq; the “Mean Absorbed Dose, Stomach Wall” value worked out at 0.0263 mGy/MBq; the “Mean Absorbed Dose, Testes” value is reported as 0.0192 mGy/MBq; the “Mean Absorbed Dose, Thymus” value is listed as 0.011 mGy/MBq. In series [1], the “Mean Absorbed Dose, Thyroid” value worked out at 0.0663 mGy/MBq; the “Mean Absorbed Dose, Total Body” value is reported as 0.0133 mGy/MBq; the “Mean Absorbed Dose, Urinary Bladder Wall” value worked out at 0.126 mGy/MBq; the “Mean Absorbed Dose, Uterus” value is on record as 0.018 mGy/MBq. In series [1], the “effective dose” value is given as 0.0218 mSv/MBq; the “effective dose (radiation exposure) at injected activity of 200 MBq” value came out at 4.4 mSv; the kidney radiation is reported as 0.063 mGy/MBq; the “radiation dose, kidneys” value is on record as 0.063 mSv/MBq. For the same molecule, in series [1], the “radiation dose, thyroid” value amounted to 0.066 mSv/MBq and the “radiation dose, urinary bladder wall” value amounted to 0.126 mSv/MBq. In addition, the plasma half-life in series [2] (human) came to 8.6 min. In series [2], the “plasma metabolites by reversed-phase HPLC” value is “two unknown polar metabolites”. In series [3], the “acute or long-term effects on blood parameters or organ function” value is “No acute or long-term effects” and the “changes in vital signs, laboratory studies or electrocardiograms” value was “No significant changes”.

“[^68Ga]Ga-NODAGA-RGDyK [monomeric RGD PET tracer]”: in series [4], the effective dose is on record as 19.8 µSv/MBq and the kidney radiation was 0.046 mGy/MBq. Moreover, the “mean SUVmax in the primary tumor” value in series [5] is 3.9 ± 1.1.

For orientation: Kd means the concentration at which binding is half-saturated. Consider “NODAGA-E[c(RGDyK)]2 (head to tail) [unlabelled precursor of the tracer, obtained as acetate from ABX GmbH]”, for which the Kd at integrin subtype αvβ3 was 0.075 nM.
